The chains are these.
T1: nuclear cap-binding complex (CBC: CBP80ΔNLS + CBP20), human (human, UniProt Q09161 20-790; P52298 1-156)
T1 sequence 1: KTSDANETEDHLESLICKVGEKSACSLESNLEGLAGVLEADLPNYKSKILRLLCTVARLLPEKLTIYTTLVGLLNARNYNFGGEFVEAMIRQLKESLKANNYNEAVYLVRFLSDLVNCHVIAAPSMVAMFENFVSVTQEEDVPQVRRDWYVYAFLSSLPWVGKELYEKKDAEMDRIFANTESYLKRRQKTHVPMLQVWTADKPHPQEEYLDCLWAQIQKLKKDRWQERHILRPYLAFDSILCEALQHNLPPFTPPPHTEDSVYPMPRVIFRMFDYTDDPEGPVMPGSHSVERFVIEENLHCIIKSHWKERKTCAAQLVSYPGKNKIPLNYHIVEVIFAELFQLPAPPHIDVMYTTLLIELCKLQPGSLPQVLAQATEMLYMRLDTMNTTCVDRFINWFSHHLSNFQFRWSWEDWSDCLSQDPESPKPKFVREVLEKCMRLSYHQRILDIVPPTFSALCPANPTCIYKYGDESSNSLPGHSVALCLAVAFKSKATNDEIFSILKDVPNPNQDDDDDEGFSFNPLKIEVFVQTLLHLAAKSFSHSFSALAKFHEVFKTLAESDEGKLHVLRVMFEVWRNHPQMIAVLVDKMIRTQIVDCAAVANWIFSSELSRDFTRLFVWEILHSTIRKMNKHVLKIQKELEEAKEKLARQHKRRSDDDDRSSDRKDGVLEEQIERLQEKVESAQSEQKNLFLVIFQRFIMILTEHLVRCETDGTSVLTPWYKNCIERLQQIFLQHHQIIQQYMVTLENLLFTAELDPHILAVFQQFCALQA
T1 sequence 2: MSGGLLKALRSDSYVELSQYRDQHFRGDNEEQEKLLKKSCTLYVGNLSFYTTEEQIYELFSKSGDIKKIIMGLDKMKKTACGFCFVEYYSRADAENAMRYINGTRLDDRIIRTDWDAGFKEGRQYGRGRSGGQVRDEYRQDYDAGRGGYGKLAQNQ

T2: CBP80ΔNLS (NCBP1), human (human, UniProt Q09161 20-790)
T2 sequence (looked up): T1 sequence 1

B1: MBP-ZC3H18^117-258 (domain or fragment)
chain: SSVTRELDEHELDYDEEVPEEPAPAVQEDEAEKAGAEDDEEKGEGTPREEGKAGVQSVGEKESLEAAKEKKKEDDDGEIDDGEIDDDDLEEGEVKDPSDRKVRPRPTCRFFMKGNCTWGMNCRFIHPGVNDKGNYSLITKAD
B2: His-MBP-PHAX^103-196 (domain or fragment, human, UniProt Q9H814 103-196, looked up)
chain: SQKPPVAGGKKINNIWGAVLQEQNQDAVATELGILGMEGTIDRSRQSETYNYLLAKKLRKESQEHTKDLDKELDEYMHGGKKMGSKEEENGQGH
B3: CBP20 (NCBP2), human (natural protein)
chain: T1 sequence 2
B4: NELF-E^244-380 (domain or fragment, human, UniProt P18615 244-380, looked up)
chain: GPFRRSDSFPERRAPRKGNTLYVYGEDMTPTLLRGAFSPFGNIIDLSMDPPRNCAFVTYEKMESADQAVAELNGTQVESVQLKVNIARKQPMLDAATGKSVWGSLAVQNSPKGCHRDKRTQIVYSDDVYKENLVDGF
B5: NELF-E^244-380 (W345E) (domain or fragment, human, UniProt P18615 244-380, looked up)
chain: B4 chain with W102E
B6: His-MBP-NCBP3^560-620 (domain or fragment, human, UniProt Q53F19 560-620, looked up)
chain: TKKVDHRAPGAEEDDSELQRAWGALIKEKEQSRQKKSRLDNLPSLQIEVSRESSSGSEAES
B7: NCBP3^560-620 (tag cleaved, cryo-EM sample) (domain or fragment, human, UniProt Q53F19 560-620, looked up)
chain: B6 chain
B8: His-MBP-NCBP3^360-620 (domain or fragment, human, UniProt Q53F19 360-620, looked up)
chain: DQDMDADDRVVVEYHEELPALKQPRERSASRRSSASSSDSDEMDYDLELKMISTPSPKKSMKMTMYADEVESQLKNIRNSMRADSVSSSNIKNRIGNKLPPEKFADVRHLLDEKRQHSRPRPPVSSTKSDIRQRLGKRPHSPEKAFSSNPVVRREPSSDVHSRLGVPRQDSKGLYADTREKKSGNLWTRLGSAPKTKEKNTKKVDHRAPGAEEDDSELQRAWGALIKEKEQSRQKKSRLDNLPSLQIEVSRESSSGSEAES

For series [1], the target named is ARS2^147-871 (human). Put plainly: ITC. For orientation: ITC needs no label: the signal is the heat of the interaction.
In series [2] the target is ZC3H18 double ARM motif peptide, biotinylated (human). Put plainly: BLI. In general terms: In BLI a coated tip is dipped into the sample, and binding shifts an interference pattern.
The target of series [3] is PHAX^1-18 peptide (ARM 9-EDGQL), biotinylated (human) (UniProt Q9H814). Put plainly: BLI.
Series [4] deals with ARS2^147-871 (human). The experiment in a line: ITC. The source holds these as a separate data set.
Series [5] addresses T1, nuclear cap-binding complex (CBC: …). The experiment in a line: ITC.
The target in the next series is full-length PHAX (human, UniProt Q9H814 1-394). Put plainly: cryo-EM structure.
The target of a further series is T2, CBP80ΔNLS (NCBP1), human. The experiment in a line: cryo-EM structure.
Series [6] has as its target T1, nuclear cap-binding complex (CBC: …). The experiment in a line: SPR. (Surface plasmon resonance follows binding to a sensor surface in real time, without labels.)
Series [7] shares this target. Put plainly: ITC. This is another data set of the same source.
Series [8] concerns the target CBP80 (delta NLS);CBP20;PHAX (human;human;human, UniProt Q09161;P52298;Q9H814 20-790;1-156;1-394, del1-19||). Put plainly: cryo-EM.
Series [9] has as its target T1, nuclear cap-binding complex (CBC: …). The experiment in a line: ITC. The source holds these as a separate data set.
The target in the series “CBP20 (NCBP2), human” is B3. The experiment in a line: cryo-EM structure.
For series [10], the target named is T1, nuclear cap-binding complex (CBC: …). The experiment in a line: pull-down.

Substitutions are numbered along the chain they refer to. Numbers in names are those of the source. Read-outs that look alike come from different tables or passages of the source.

Sequence of full-length PHAX (human, UniProt Q9H814 1-394) (Q9H814 whole entry): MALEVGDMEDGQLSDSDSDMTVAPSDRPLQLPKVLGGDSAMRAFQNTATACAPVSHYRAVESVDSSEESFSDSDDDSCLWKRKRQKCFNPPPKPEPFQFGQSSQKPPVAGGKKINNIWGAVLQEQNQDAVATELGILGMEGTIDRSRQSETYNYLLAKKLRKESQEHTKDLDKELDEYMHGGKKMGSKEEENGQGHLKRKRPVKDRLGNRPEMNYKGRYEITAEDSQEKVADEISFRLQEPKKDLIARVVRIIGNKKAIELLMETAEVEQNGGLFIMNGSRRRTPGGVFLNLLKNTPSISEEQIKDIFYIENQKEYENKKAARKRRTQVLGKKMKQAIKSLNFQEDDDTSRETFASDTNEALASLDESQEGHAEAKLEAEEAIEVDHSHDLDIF
Sequence of CBP80 (delta NLS);CBP20;PHAX (Q9H814 whole entry, stated change not applied, one chain of several): as the sequence (Q9H814 whole entry) above

Regarding “full-length PHAX (from UniProt Q9H814 1-394) (natural protein)”, the Kd with ARS2^147-871 (human) [1] worked out at 4.1 µM.

In the case of ARS2^147-871 (domain or fragment), the Kd in series [2] was determined as 7.7 µM; in series [3], 6.1 µM.

Turning to KESLEAAKEKKKEDDDGEIDDGEIDDDDLEEGEVKDPSD (domain or fragment) [MBP-ZC3H18^177-215], the dissociation constant Kd with ARS2^147-871 (human) [4] is 3500 nM.

Molecule B1 yielded an equilibrium dissociation constant (Kd) with ARS2^147-871 (human) [4] of 700 nM.

As to B2, in [5], the dissociation constant Kd was 2400 nM.

Turning to B3, the binding result is given as “binds” with full-length PHAX and “binds” in the series with CBP80ΔNLS (NCBP1), human.

As for ESAWERGLRHAKEVLKKATIRKEQEPDFEEKRFTVTIGEDER (domain or fragment, human, UniProt Q86VM9 298-339, looked up) [His-MBP-ZC3H18^298-339], the dissociation constant Kd in [6] was found to be 150 nM.

As for TKKVDHRAPGAEEDDSELQRAWGALIKEKEQ (domain or fragment, human, UniProt Q53F19 560-590, looked up) [NCBP3^560-620 truncated to residue 590], the dissociation constant Kd in series [7] came out at 6000 nM.

Take TKKVDHRAPGAEEDDSELQRAWGALIKEKEQSRQKKSR (domain or fragment, human, UniProt Q53F19 560-597, looked up) [NCBP3^560-620 with C-terminal residues 598-620 removed]: in series [7], the Kd was found to be 222 nM.

Regarding B4, in [7], the Kd worked out at 113 nM.

For B5, in series [7], the equilibrium dissociation constant (Kd) was found to be 1300 nM.

Regarding AAUCUAUAAUAG (ssRNA, 5' m7Gppp cap) [capped 12-mer RNA (m7Gppp-AAUCUAUAAUAG)], the binding result in [8] was “binds”.

For the molecule B6, the values for the equilibrium dissociation constant (Kd) in series [5] and in [9] were approximately 115 nM and approximately 173 nM, respectively.

For the molecule B7, the binding result in the series with CBP20 (NCBP2), human was “binds”.

For B8, the binding result in [10] is recorded as “binds”.

A word on the Kd: it is the concentration at which binding is half-saturated.

These data come from publication doi:10.1101/2023.07.25.550453 (bioRxiv, 2023).
